Reference: the NTF2 design screens of Basanta et al. (2020)

Assay: protease stability score; higher = more stable; yeast display proteolysis, trypsin and chymotrypsin;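 note: relative to predicted unfolded state with 0 unfolded-like and 1 meaning tenfold more protease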

Row | Sequence | protease stability score
1 | EEDKDWAEWAMRLFVELLFTGDEERLNHFLDPHVRVEFNGRDLHGREMLEKLLELMGIDHIQFKHIELRVIDGQVHLHIDGFADIDGRTHRIRIHMHFEKINGKWRFHSVKFEHK | 1.39
2 | DDKHELSHKFVRLIMHLIDTGDEDDIHRLLDPHAKLHVGDKRFVGREDIAHFWKKHLDDLGADYRHTRLKHIDLIGEKVIVHTEIDLTVGEYRVTIDSTFVVEKINGRWLSREFRWN | 0.88
3 | DEHENVMHDAIENIEHMIHTGDEHISERLLDPNVKLDVNGRRFHGWEEFNKWLHHMGADVVDHKRLESQGDKVHTDGRVFFNGREYDSEINSLKVNGRWLITEVRIH | 0.337
4 | DDEEDKAREAFKMLQELVNTGNEELLYQYFDPNYRLDVDGRQIHGREAVVNERRKRFEMWGVEQVRLHIDTWDIIGNKVKLDGHLNFNGVIKKTHIHLLKVNGRWVIESERIE | 1.08
5 | DEYWHHMKKSFEDLHDARHTGDERFVMEMLDPNVRFDINGVEFIGREDWRRHLQELGVDHEEIILHDYHIFNGRVELDVRTVHHIGDYELRRDEHMDLRKVNGRWHIKEIRVR | 0.209
6 | DEDTQTLEKIWRDFVRALRTGDEDHLSRLLDPNTRIDINGKESHGRERAEEVLREMFERIDHFHRVEIHDRREVNGRVNLDTRRDVEVNGVRDMYTTHLIILKVDGKWSMKTIELK | 1.33
7 | HEDERDAEEMLRLIEEAVYTGDEDLTKYLMDPNVRIHVGDKEFHGRDFLIMRLLEIRHHRFRLELHDIRIQGNKVILDVRWRLDGEINGQRFDDTWDVIIIAEKVNGQWRVQTLIIR | 2.59
8 | TEDERHLEESIELFHEVHRTGDEEQLHRMLDPSVRVDVNGRILHGREIVVEWLRRTLEKFKNVQIEFILKDRDHINGVLRIHGVLLVNVGDKHTIIDTIIVAHKVNGRWLIHSMHVK | 2.15
9 | DELHELVKRYWDRWIESMLTGDFDANHELVDPHARVDIGDKRFHGRELYELHYKRIDHFHIHEINIRHIEVVDGRVHIDVIMHTFEIVNGVKFSHHFRQIIIIEKVDGRWVVRRIIVK | 1.01
10 | DEIREESERFARKLVHDWQTGDWRSLLLLMDPNVRLILHFNGVEYRFHGMEIVLEWLKRLIERVDHVFFHVKDIRIQGDKIELRIEEEFRQGDKSRRHDVVLHLVVIDGKIKSISFEVL | 2.7
11 | DEEEKLLEKMFKDLIRDLLTGDEESFHKLADPNMRLNQGDFQIHGWEDVQRVLRWRMHEMRIHHLHIHHLHFFDGKLHIDGESDIEFNGVRQNRRVEILIKKVDGKWELKEVIIR | 2.28
12 | HEEKELVNRSVELSYRVLKTGDEHTLEELLDPDAKTRLNINGKNEKLVGRENVLHIVTWFLDFLGIKHVELRDVRYVGDKVHIDMQIDVNGRHSRWHLIAEKIDGRWFMHSIQVEVH | 0.18
13 | DEDEEEWHRFLELVHHFLRTGDWRRILDLIDPRALVHVGDKTFHGRHAIEHLLRHIHDRIPGMKQSLIIDHHDSQGDKIHLDVTLDLHFNGVEYHLRERTLELKINGKWVEKVREVD | 0.821
14 | DESRREVRHFIDLWIELVETGDEDTIRHLADPHVKIVIGEKEDWGMEVFFRDFRRLGVDHMEIIVHRVDVIGNKAHVDFELRVHVDGQEFRFRLRLIVHKINGRWILRTIEIH | 1.68
15 | NDDQKELEHIMKLLSRALETGDEEKLRELFDPHTRIHINGVTRIGWEHMKHHFEDLGLSNFHFHLRVRHFDVQGDKARVEGELVVNFNGKETSHDVEWRLEKVNGRWIVKSIIVG | 2.27
16 | HELEERLEKWFKKFLHNMMTGDEDKLIHLADPHAKFRIDGVESHGRENWSRYVEERHLKLGLENIHVNVHRVHVQGDKIDMTGTLEINGQRVDFHIHIEVVDGRIKRLIIIIE | 0.732
17 | SDEERDFTRLIRILRDALRTGDEHKLHELLDPHTRIIFDGQHHIGWERILEWADQIDHVHFRMTLHTVDIQGDKLRADLSLDVKIQVDGRTEHRHNVMHITVQKVNGRWRIQELYYK | 1.27
18 | DEEEKHIRKMAEDLKRAFATGDWELLLEMFDPDVRINIIVNGRIIEEHGMENHVRKHVELGITVRLKDEHVESQGNWAHHEGRLEVNVNGKEKSFDVHINLLIVNGRLKESHLKIE | 2.07
19 | EEDEEVAYHFMEEWFHYVHTGNEEMLERMLDPDVKLTFDGKEFHGRETVLRAIIEWRIEHVRIKDFRFKVINGRAEIRLDGERRGQIDGVKRETRIIIEINVHKVDGKWKIERVELHTL | 2.1
20 | SETREDTRELVESFLNALRTGDEDLLRRLMDPHVKVYFNGREFHGRELATRVESHLRVHDIDVRDMRIIGDKVIIDLQVDGEWDGVRFHRETELHTQKVNGRWFIREIRIH | 2.23
21 | REEEREAKEWLERLIRDIITGDEDKMTNLIDPNVRILINGKHIHGWELYFKIWIDHVERFPNMRVDYHVKSITFFNGRIIMYYEERIHINGKEIRVDVHIQALKVNGRWILESVHNE | 1.54
22 | DEEKELNRHLAELWLHWWFTGDEEVITEMADPEVRFEVDGRTFHGRETLSRMISEKKRDLGADHERLRDVKVIGDKVHIESVIHVNGRELEVHIIIVVYNGRLKELRVEVK | 1.04
23 | SEDEEWLHMAFELFAEAMRTGDEETLREYLDPRVRLVVGDKNLHGMEIVMRHFLEWRVRDVKIERIRVINGQLHIDGRLRVEFNGQEKNVDLTLILDKYNGRWRNRTIELR | 1.69
24 | DEAQEIVEFVFKILAEFQETGDEDSLKHLLDPNVRILQGNKELHGRDQNIKRLREELDRFGVDKFRVELRLEHVTIIDGRLHLDMRLNLDVNGVEIRLEVHFVLIKVDGQWSIHEVRFH | 1.61
25 | DQKKELIKKVHEHLFEDLITGDEKKLLSLADPNMRSDINGREIHGMEETSRILLELNRHWGVDRVEVHEHDMKIQGDKAIIHGTLKFNGVETTVELVILKINGVWLLKEVHFR | 0.76
